Results reported in patent publication US12398178B2, “Collections of peptides, peptide agents, and methods of use thereof” (Parabilis Medicines, Inc., priority 2018, dated 2025).
Positions of bridges follow the written chain, without caps; N, C: chain ends. No end group written: not given here. Linker 16 = not defined here

Columns and labels:
[1] = Measurement of LogD (CHI logD by HPLC); type: physicochemical; details: CHI log D, 50 mM ammonium acetate pH 7.4 / acetonitrile gradient, C-18 column, 25° C.
Method: Measurement of LogD: LogD values were measured on a Agilent 1260 HPLC with UV detector (254, 220 nm), using a Gemini NX C-18 50×3 mm column (Phenomenex) with a 6-minute 0-100% mobile phase gradient of A) 50 mM ammonium acetate pH 7.4 and B) Acetonitrile at 25° C. with a flow rate of 1 mL/min and injection volume of 3-5 uL.

full-length β-Catenin = molecular target: T1, full-length β-Catenin (Homo sapiens, UniProt P35222); test: Competition fluorescence polarization assay for binding to beta-catenin (displacement of FITC labeled Axin peptide probe); details: 15 nM full-length β-Catenin, 20 nM FITC labeled Axin peptide probe, 3-fold serial dilution from 5 μM; read-out: bCat EC50
T1 construct: Probe solution (15 nM full-length β-Catenin, 20 nM FITC labeled Axin peptide in buffer)
T1 sequence (P35222 1-781): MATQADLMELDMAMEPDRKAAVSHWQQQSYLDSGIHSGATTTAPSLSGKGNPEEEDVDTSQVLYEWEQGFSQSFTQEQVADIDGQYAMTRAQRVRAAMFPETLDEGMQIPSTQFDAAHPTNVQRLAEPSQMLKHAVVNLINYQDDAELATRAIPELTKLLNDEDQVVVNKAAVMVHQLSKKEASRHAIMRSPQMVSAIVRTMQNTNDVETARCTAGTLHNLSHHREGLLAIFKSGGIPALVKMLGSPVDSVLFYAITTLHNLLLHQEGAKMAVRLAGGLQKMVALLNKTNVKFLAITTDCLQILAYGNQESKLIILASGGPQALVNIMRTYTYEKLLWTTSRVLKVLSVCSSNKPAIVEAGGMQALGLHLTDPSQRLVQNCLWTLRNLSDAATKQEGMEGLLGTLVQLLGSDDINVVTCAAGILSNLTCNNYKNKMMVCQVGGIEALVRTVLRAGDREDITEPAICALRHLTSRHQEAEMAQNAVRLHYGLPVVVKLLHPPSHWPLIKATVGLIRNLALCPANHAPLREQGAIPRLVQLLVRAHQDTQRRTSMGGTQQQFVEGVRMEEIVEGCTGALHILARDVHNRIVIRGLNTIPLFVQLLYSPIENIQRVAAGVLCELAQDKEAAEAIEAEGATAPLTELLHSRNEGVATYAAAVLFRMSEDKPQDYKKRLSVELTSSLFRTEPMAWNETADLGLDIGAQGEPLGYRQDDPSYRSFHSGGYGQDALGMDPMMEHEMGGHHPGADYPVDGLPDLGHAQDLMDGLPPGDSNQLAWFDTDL
Method: Peptide assessment: In one assay for assessing binding to beta-catenin, peptide solutions were prepared in buffer (50 mM Tris pH 8.0, 250 mM NaCl, 2% glycerol, 0.5 mM EDTA, 0.02% w/v sodium azide) using a 3-fold serial dilution from 5 μM. Probe solution (15 nM full-length β-Catenin, 20 nM FITC labeled Axin peptide in buffer ([FAM-PEG1-RRWPR(S5)ILD(S5)HVRRVWR (SEQ ID NO: 44)] where the two S5 residues are stapled, as reported in: Proc Natl Acad Sci USA. 2012 Oct. 30; 109(44):17942-7)) was prepared and incubated for 5 minutes, then 40 μL per well plated in a black polystyrene 384-well plate (Corning). Equal volume of the titrated peptide was added to the plate and incubated protected from light for 15 minutes prior to read. Reads were performed on a Spectramax M5 (Molecular Devices) in duplicate.

[2] = Measurement of LogK (log k IAM by HPLC on IAM.PC.DD2 column); type: physicochemical; details: 50 mM ammonium acetate pH 7.4 / acetonitrile, 30° C.
Method: Measurement of LogK: LogK values were measured on a Agilent 1260 HPLC with UV detector (254,280 nm) using a IAM.PC.DD2 100×4.6 mm column (Regis Technologies 1-774011-300) with a 6.5 min gradient of 0-90% B with mobile phase A of 50 mM ammonium acetate pH 7.4, and mobile phase B of Acetonitrile. The temperature was 30° C., the flow rate 1.5 mL/min, and the injection volume 3-5 uL. Calibration mixture IAM was purchased from Bio-mimetic Chromatography Ltd and used to run calibration, calculate CHI IAM value, then calculate logk IAM using equation: log k IAM=0.046*CHI IAM+0.42.

Substance	LogD [1]	EC50 (full-length β-Catenin) [µM]	LogK [2]	chromatographic logD [1]
37 (ADPATHRCEWAALHCELV; linker 8-15 via Linker 16 (inferred); reading uncertain) [Compound 37]	0.84	> 10	1.34	
GPAKPEAPGEDASPDELTYYYDELRDYLYSVA-NH2 (C-terminus assumed) [Compound 19]		> 10		0.82
